pKd: −log10 of the molar value.
Columns and labels:
Assay in all cases: SPR
[1] = molecular target: humanized anti-gD IgG1 variant H310Q (human)
[2] = molecular target: humanized IgG1 anti-herpes simplex virus glycoprotein D antibody, wild type (human)
[3] = molecular target: humanized anti-gD IgG1 variant T307Q/N434A (human)

Soluble murine FcRn (neonatal Fc receptor) (from UniProt Q61559 22-297)
pKd [1]: 4.03 | koff [1]: 0.115 s⁻¹ | kon [1]: 1230 M⁻¹ s⁻¹ | pKd [2]: 6.22 | koff [2]: 0.0037 s⁻¹ | kon [2]: 6160 M⁻¹ s⁻¹ | pKd [3]: 6.97 | koff [3]: 0.0021 s⁻¹ | kon [3]: 19100 M⁻¹ s⁻¹

— publication PMC4011913
